In patent US5830699:

Molecular target: HA-SOK-1 (human)

SOK-1 kinase activity: 40%
Substance: catalytic subunit of protein phosphatase 2A (enzyme)
